From patent publication US20070264253A1 (Eli Lilly, published 2007)
Blank lines part the entries; values can stand above or below the binder they belong to.

Legend:
EGFR-AP fusion protein [1] = target: T1, EGFR-AP fusion protein (UniProt P00533 25-645); experiment: BIAcore SPR, EGFR-AP immobilised on the chip
T1 construct: Immobilised on the BIAcore sensor chip; Neither the species nor the residues of the EGFR part are stated
Experimental: (§1) Sensorgrams were obtained at each concentration and were analyzed with BIA Evaluation 2.0, a program to determine the rate constants, kₒₙ and koff. The affinity constant, Kd, was calculated from the ratio of rate constants, koff/kₒₙ.

EGFR-AP fusion protein [2] = target: T1, EGFR-AP fusion protein; experiment: BIAcore SPR, EGFR-AP immobilised on the chip; koff/kon
Experimental: as §1

- koff (EGFR-AP fusion protein [1]): 0.00367 s⁻¹
- kon (EGFR-AP fusion protein [1]): 2.29e+06 M⁻¹ s⁻¹
- Kd (EGFR-AP fusion protein [2]): 1.78 nM
B1: IMC-11F8 Fab (Fab, V domains shown)
VH: QVQLQESGPGLVKPSQTLSLTCTVSGGSISSGDYYWSWIRQPPGKGLEWIGYIYYSGSTDYNPSLKSRVTMSVDTSKNQFSLKVNSVTAADTAVYYCARVSIFGVGTFDYWGQGTLVTVSS
VL: EIVMTQSPATLSLSPGERATLSCRASQSVSSYLAWYQQKPGQAPRLLIYDASNRATGIPARFSGSGSGTDFTLTISSLEPEDFAVYYCHQYGSTPLTFGGGTKAEIK

- koff (EGFR-AP fusion protein [1]): 0.00058 s⁻¹
- kon (EGFR-AP fusion protein [1]): 1.86e+06 M⁻¹ s⁻¹
- Kd (EGFR-AP fusion protein [2]): 0.32 nM
B2: IMC-11F8 (full human IgG1 anti-EGFR antibody) (antibody, V domains shown)
VH: B1 VH
VL: B1 VL
notes: also called IMC-C11F8; 11F8 monoclonal antibody
